19 molecules from patent US20190315864A1 (SUZHOU ALPHAMAB, published 2019) can be followed below.

The chains are these.
B1: CTLA4 heavy chain single domain antibody No. J5 (VHH)
VHH: QVQLQESGGGSVQAGGSLRLSCAASGYTYSTYCMAWFRQVPEKERERVASIYTGGGTTYYADSVKGRFTISLDNAKNTLYLQMNSLKPEDTAMYYCAKSAARCDSSRDVNRLGYWGQGTQVTVSS
notes: Camel VHH expressed in E. coli (PET32b), nickel-purified
B2: CTLA4 heavy chain single domain antibody No. C38 (VHH)
VHH: QVQLQESGGGSVQAGGSLRLSCAASRYTASSNCMAWFRQAPGKEREGVATIYNGGGSTAYADSVKGRFTISQDNAKNTVYLQMNSLKPEDTAMYYCGAGSPRFCASATMTGGHHLFGYWGQGTQVTVSS
notes: as for B1
B3: CTLA4 heavy chain single domain antibody No. J37 (VHH)
VHH: B2 VHH with S17T, A24V, R26G, Y27V, A29Y, S31P, N32H, A35G, T50A
notes: as for B1
B4: CTLA4 heavy chain single domain antibody No. C29 (VHH)
VHH: QVQLQESGGGSVQAGGSLRLSCAVSGYTYSGYCMGWFRQAPGKEREGVAAISRGDGSPGYADSVKGRFTISQDNAKNTLYLQMNSLKPEDTAMYYCAADVIPTETCSYGSWSGPNGYWGQGTQVTVSS
notes: as for B1
B5: CTLA4 heavy chain single domain antibody No. 138 (VHH)
VHH: QVQLQESGGGSVQAGGSLTLSCAASGYANSNTCMGWFRQAPGKERERVAAISGVGTGTYYADSVKGRFTISRDNGKNTLFLQMNSLKPEDTAMYYCAAAPEGRAWCSRDPSGYNYWGQGTQVTVSS
notes: as for B1
B6: CTLA4 heavy chain single domain antibody No. 119 (VHH)
VHH: QVQLQESGGGSVQAGGSLRLSCAASEYTYHTNCMGWFRQAPGKEREGLAVMNPSGGVTYFADSVKGRFTISRDNAKNTVYLQMNSLKPEDTAMYYCAAGRGRCSGYSGYYNEWGQGTQVTVSS
notes: as for B1
B7: CTLA4 heavy chain single domain antibody No. C2 (VHH)
VHH: QVQLQESGGGSVQPGGSLRLSCAVSGFTFSGYCMAWVRQAPGKGLEWVASIHRRDGSTDYADSVKGRFTISKDNSKNTLYLQMSSLKPEDTAVYYCAADPARLSCSGRVNSEYKYRGQGTQVTVSS
notes: as for B1
B8: CTLA4 heavy chain single domain antibody No. 165 (VHH)
VHH: QVQLQESGGGSVQTGGSLRLSCVVSGHSYSRKCMGWFRQAPGKEREEVATFYTGDGRTYYADSVKGRFTISQDNAKNTLYLQMNSLKPEDTGMYFCAADRRVNCDLLQSTFYNYRGQGTQVTVSS
notes: as for B1
B9: CTLA4 heavy chain single domain antibody No. C16 (VHH)
VHH: QVQLQESGGGSVQAGGSLTLSCAASGYTGDLVAWFRQTPGKEREGVAAISRTGLTTYYADSVKGRFTISQDTAKNTGYLQMNSMKPEDTAMYYCVAGWHVGGTWYKTSSYDYWGQGTQVTVSS
notes: as for B1
B10: CTLA4 heavy chain single domain antibody No. J69 (VHH)
VHH: QVQLQESGGGLVQPGGSLRLSCAASGFTLSSYSMTWLRQAPGKGLEWVSTINSGGSTSYADSVKGRFAISRDNAKNTLYLQLNSLEIEDTGMYYCQGGLTRGQGTQVTVSS
notes: as for B1
B11: CTLA4 heavy chain single domain antibody No. 116 (VHH)
VHH: B10 VHH with A23E, L29F, S33T
notes: as for B1
B12: CTLA4 heavy chain single domain antibody No. J35 (VHH)
VHH: QVQLQESGGGSVQAGGSLRLSCAASGYTSGYYVMGWYRQAPGKLREFVSSIDSNGGTMYADSVKGRFTISQDNAKNTAHLQMNSLKPEDTAMYYCKRDSPGNFYWGQGTQVTVSS
notes: as for B1
B13: CTLA4 heavy chain single domain antibody No. 128 (VHH)
VHH: QVQLQESGGGSVQAGGSLKLSCAASGYTDYTYNTSCMGWFRQTPGKERERVATVNKVGSTIYADSVKGRFTISKDNVKNTLYLQMNSLKPEDTAMYYCAARGSWSCSQFWGDFGYWGQGTQVTVSS
notes: as for B1
B14: CTLA4 heavy chain single domain antibody No. J39 (VHH)
VHH: QVQLQESGGGSVQAGGSLRLSCAPSRYSGALMGWFRQAPGKEREGVAVISRSGLTTYYADSVKGRFTISQDTAKNTIYLQMNSMKPEDTAMYYCVAAPEARAWSSRDPTGYNYWGQGTQVTVSS
notes: as for B1
B15: CTLA4 heavy chain single domain antibody No. C22 (VHH)
VHH: QVQLQESGGGSVQAGGSLRLSCTVSQHTSRYYYMAWFRQAPGKEREGVASIWTGGGTPGYADSAKGRFTISTDNAKNTIYLQMNSLKPEDTAMYYCAADDRGGRWSLGTMAVGGYKYWGQGTQVTVSS
notes: as for B1
B16: CTLA4 heavy chain single domain antibody No. J78 (VHH)
VHH: B15 VHH with T72A
notes: as for B1
B17: CTLA4 heavy chain single domain antibody No. J42 (VHH)
VHH: QVQLQESGGGSVQAGGSLRLSCAASGYTYSSYNSNCMGWFRQAPGKEREGVAAIDSDGSTSYADSVKGRFTISKDNAKNTLYLQMNSLKPEDTAMYYCAASPRTCEVFSLGGSWHLFGYWGQGTQVTVSS
notes: as for B1
B18: CTLA4 heavy chain single domain antibody No. J17 (VHH)
VHH: QVQLQESGGGSVQAGGSLRLSCAASGFTLSSYTMTWLRQAPGKGLEWVSTINSGGSTSYADSVKGRFAISRDNAKNILYLQLNSLEIEDTGMYYCQGGLTQRGQGTQVTVSS
notes: as for B1
B19: CTLA4 heavy chain single domain antibody No. J29 (VHH)
VHH: B18 VHH with S11L, A14P, L29I, R38H, S58A, I77T, E86K
notes: as for B1

Changes are numbered by the printed parent chain.

The first assay has as its target T1, Fc protein.
T1 construct: Counter-screen for the Fc part of CTLA4-Fc
Nature of the assay: ELISA, Fc protein coated, 10 ng VHH/well. The protocol: (§1) Plates were coated with Fc protein overnight at 4° C. and 10 ng of the heavy chain single domain antibody obtained in Example 2.1 was added to each well (control was a single domain antibody against other unrelated targets) and allowed to react for 1 hour at room temperature. After washing, an rabbit anti-human Fc antibody (purchased from Shanghai Pu Xin Biotechnology Co., Ltd.) was added and reacted for 1 hour at room temperature. After washing, goat anti-rabbit horseradish peroxidase labeled antibody (purchased from Shanghai Pu Xin Biotechnology Co., Ltd.) was added and reacted at room temperature for 1 hour. After washing, chromogenic agent was added and the absorbance was read at 405 nm.
Background: ELISA stands for enzyme-linked immunosorbent assay.
For B1, the “OD (against Fc)” value was found to be 0.036 OD405.
Same read-out and setting: for B2 the value was 0.045 OD405; for B3, 0.034 OD405; for B4, 0.085 OD405.
The same measure, in the same setting: the value for B5 was 0.041 OD405.
On the same count and under the same terms, the value for B6 was 0.037 OD405; that for B7 was 0.035 OD405; that for B8 was 0.051 OD405.
With B9, the “OD (against Fc)” value is 0.053 OD405.
Same read-out and setting: for B10 the value was 0.037 OD405; for B11, 0.046 OD405.
On the same count and under the same terms, for B12 the value was 0.036 OD405; for B13, 0.036 OD405; for B14, 0.042 OD405.
Still for that read-out and setting: the value for B15 was 0.06 OD405.
For B16, the “OD (against Fc)” value turned out to be 0.121 OD405.
Regarding B17, the “OD (against Fc)” value turned out to be 0.045 OD405.
On the same count and under the same terms, the value for B18 was 0.046 OD405.
The same measure, in the same setting: for B19 the value was 0.036 OD405.

Another assay has as its target T2, CTLA4-Fc fusion protein (human, biotinylated where used as CTLA4-Fc-Biotin (Examples 5.1-5.3)).
T2 construct: expressed in HEK293 cells; also called human CTLA4-Fc protein; CTLA4-Fc antigen protein
Nature of the assay: ELISA, CTLA4-Fc coated, 10 ng VHH/well. On the procedure:
(§2) Plates were coated with CTLA4-Fc fusion protein overnight at 4° C. and 10 ng of the heavy chain single-domain antibody obtained in Example 2.1 (the control was a single domain antibody not binding to the CTLA4-Fc protein) was added to each well and allowed to react for 1 hour at room temperature. After washing, primary antibody anti-His tag antibody (purchased from Beijing Kangwei Century Biotechnology Co., Ltd.) was added and reacted for 1 hour at room temperature. After washing, a secondary goat anti-mouse horseradish peroxidase-labeled antibody (Yiqiao Shenzhou, Cat: SSA007200) was added and reacted for 1 hour at room temperature. After washing, chromogenic agent was added and the absorbance was read at 405 nm.
B1: the “OD (against CTLA4)” value was determined as 1.21 OD405.
The same measure, in the same setting: the value for B2 was 1.02 OD405.
Still for that read-out and setting: for B3 the value was 1.2 OD405; for B4, 1.51 OD405; for B5, 1.84 OD405.
On the same count and under the same terms, the value for B6 was 0.537 OD405.
With B7, the “OD (against CTLA4)” value was 1.23 OD405.
Take B8: the “OD (against CTLA4)” value amounted to 1.21 OD405.
B9: the “OD (against CTLA4)” value turned out to be 1.79 OD405.
Still for that read-out and setting: for B10 the value was 0.635 OD405; for B11, 0.234 OD405.
The same measure, in the same setting: the value for B12 was 0.823 OD405; that for B13 was 1.27 OD405; that for B14 was 1.75 OD405.
Still for that read-out and setting: for B15 the value was 0.848 OD405; for B16, 0.632 OD405.
Turning to B17, the “OD (against CTLA4)” value came to 1.09 OD405.
Still for that read-out and setting: for B18 the value was 1.4 OD405.
The same measure, in the same setting: for B19 the value was 1.44 OD405.

The target of a further assay is T2, CTLA4-Fc fusion protein. Nature of the assay: ELISA OD ratio, value equals OD(CTLA4)/OD(Fc). The protocol:
as §2, §1
On to B1, for which the ODa/OD blank is 33.6.
Same read-out and setting: the value for B2 was 22.7.
On the same count and under the same terms, for B3 the value was 35.3; for B4, 17.8; for B5, 45.
For the molecule B6, the ODa/OD blank was found to be 14.5.
On the same count and under the same terms, the value for B7 was 35.2; that for B8 was 23.8; that for B9 was 33.7.
Same read-out and setting: the value for B10 was 17.2.
Same read-out and setting: for B11 the value was 5.1.
For the molecule B12, the ODa/OD blank stood at 22.9.
The same measure, in the same setting: the value for B13 was 35.2.
Still for that read-out and setting: for B14 the value was 41.6; for B15, 14.1; for B16, 5.2.
Take B17: the ODa/OD blank turned out to be 24.1.
Still for that read-out and setting: the value for B18 was 30.4.
For the molecule B19, the ODa/OD blank was 40.

Another assay deals with T2, CTLA4-Fc fusion protein. The assay can be described thus: competitive ELISA: CD80-Fc-Biotin signal on coated CTLA4-Fc with 500 ng VHH/well; competitor CD80-Fc-Biotin. The protocol:
SA-HRP (purchased from Sigma) was added and allowed to react for 1 hour at room temperature. After adding chromogenic solution, absorbance was read at 405 nm wavelength.
In turn, B1 returned an OD of 2.5 OD405.
In turn, B2 gave an OD of 2.28 OD405.
The same measure, in the same setting: the value for B3 was 1.06 OD405; that for B4 was 2.43 OD405.
Still for that read-out and setting: for B5 the value was 1.92 OD405; for B6, 2.53 OD405.
In the case of B7, the OD amounted to 2.52 OD405.
As for B8, the OD worked out at 1.84 OD405.
On the same count and under the same terms, the value for B9 was 1.89 OD405.
The same measure, in the same setting: for B10 the value was 2.34 OD405; for B11, 2.58 OD405; for B12, 2.57 OD405.
Still for that read-out and setting: for B13 the value was 0.893 OD405; for B14, 2.13 OD405; for B15, 2.47 OD405.
In the case of B16, the OD amounted to 2.41 OD405.
The same measure, in the same setting: for B17 the value was 0.94 OD405; for B18, 2.53 OD405; for B19, 2.5 OD405.

Another assay concerns the target T2, CTLA4-Fc fusion protein. The assay can be described thus: ELISA OD ratio, value equals OD(CTLA4)/OD(blank). On the procedure:
as §2
As to B1, the ODa/ODb was 43.2.
Still for that read-out and setting: the value for B2 was 36.5; that for B3 was 42.9; that for B4 was 54.
The same measure, in the same setting: for B5 the value was 65.8; for B6, 19.2; for B7, 44.
Turning to B8, the ODa/ODb was determined as 43.4.
The same measure, in the same setting: the value for B9 was 63.8; that for B10 was 22.7.
Still for that read-out and setting: the value for B11 was 8.4; that for B12 was 29.4.
For B13, the ODa/ODb was 45.3.
On the same count and under the same terms, the value for B14 was 62.4.
Still for that read-out and setting: for B15 the value was 30.3; for B16, 22.6; for B17, 38.8.
Same read-out and setting: the value for B18 was 50.
As for B19, the ODa/ODb stood at 51.4.
